According to PMC8927117, “Structural Insight into the MCM double hexamer activation by Dbf4-Cdc7 kinase” (Nature Communications, 2022):
“And” between values parts separate entries of the source, which are not always exact repeats. Identical values can stand only once.

B1: Dbf4 (subunit of the full-length DDK) (natural protein, budding yeast, UniProt P32325 1-704, looked up)
chain: MVSPTKMIIRSPLKETDTNLKHNNGIAASTTAAGHLNVFSNDNNCNNNNTTESFPKKRSLERLELQQQQHLHEKKRARIERARSIEGAVQVSKGTGLKNVEPRVTPKELLEWQTNWKKIMKRDSRIYFDITDDVEMNTYNKSKMDKRRDLLKRGFLTLGAQITQFFDTTVTIVITRRSVENIYLLKDTDILSRAKKNYMKVWSYEKAARFLKNLDVDLDHLSKTKSASLAAPTLSNLLHNEKLYGPTDRDPRTKRDDIHYFKYPHVYLYDLWQTWAPIITLEWKPQELTNLDELPYPILKIGSFGRCPFIGDRNYDESSYKRVVKRYSRDKANKKYALQLRALFQYHADTLLNTSSVNDQTKNLIFIPHTCNDSTKSFKKWMQEKAKNFEKTELKKTDDSAVQDVRNEHADQTDEKNSILLNETETKEPPLKEEKENKQSIAEESNKYPQRKELAATPKLNHPVLATFARQETEEVPDDLCTLKTKSRQAFEIKASGAHQSNDVATSFGNGLGPTRASVMSKNMKSLSRLMVDRKLGVKQTNGNNKNYTATIATTAETSKENRHRLDFNALKKDEAPSKETGKDSAVHLETNRKPQNFPKVATKSVSADSKVHNDIKITTTESPTASKKSTSTNVTLHFNAQTAQTAQPVKKETVKNSGYCENCRVKYESLEQHIVSEKHLSFAENDLNFEAIDSLIENLRFQI
notes: Dbf4, budding yeast, 704 residues; Stood in the assay as part of the DDK heterodimer
B2: Cdc7 (subunit of the full-length DDK) (enzyme, budding yeast, UniProt P06243 1-507, looked up)
chain: MTSKTKNIDDIPPEIKEEMIQLYHDLPGIENEYKLIDKIGEGTFSSVYKAKDITGKITKKFASHFWNYGSNYVALKKIYVTSSPQRIYNELNLLYIMTGSSRVAPLCDAKRVRDQVIAVLPYYPHEEFRTFYRDLPIKGIKKYIWELLRALKFVHSKGIIHRDIKPTNFLFNLELGRGVLVDFGLAEAQMDYKSMISSQNDYDNYANTNHDGGYSMRNHEQFCPCIMRNQYSPNSHNQTPPMVTIQNGKVVHLNNVNGVDLTKGYPKNETRRIKRANRAGTRGFRAPEVLMKCGAQSTKIDIWSVGVILLSLLGRRFPMFQSLDDADSLLELCTIFGWKELRKCAALHGLGFEASGLIWDKPNGYSNGLKEFVYDLLNKECTIGTFPEYSVAFETFGFLQQELHDRMSIEPQLPDPKTNMDAVDAYELKKYQEEIWSDHYWCFQVLEQCFEMDPQKRSSAEDLLKTPFFNELNENTYLLDGESTDEDDVVSSSEADLLDKDVLLISE
notes: Cdc7, budding yeast; Stood in the assay as part of the DDK heterodimer; also called kinase core
B3: Dbf4-dependent kinase Cdc7 (DDK), full-length Cdc7-Dbf4 heterodimer (complex, budding yeast)
chain 1: B1 chain
chain 2: B2 chain
notes: Dbf4, budding yeast, 704 residues; Cdc7, budding yeast; Treated with lambda phosphatase during purification; also called Dbf4-Cdc7 kinase complex; WT DDK

Tests used:
Assay in all cases: cryo-EM structure; DDK-DH mixture (ATP-γ-S) mildly crosslinked by Grafix: 20-40% glycerol gradient with 0-0.025% glutaraldehyde, 150 mM KOAc, pH 7.6, 4 °C; States I-IV and Groups I-VI by focused 3D classification
Details in all cases: both partners purified
[1] = biological target: T1, Mcm2 (subunit of the MCM double hexamer) (budding yeast (endogenous in W303), UniProt P29469 1-868)
T1 construct: Mcm2, budding yeast, endogenous protein from its genomic locus; Stood in the assay as a subunit of the DH; source: endogenous, G1 chromatin of budding yeast (W303), purified as part of the DH
T1 sequence (looked up): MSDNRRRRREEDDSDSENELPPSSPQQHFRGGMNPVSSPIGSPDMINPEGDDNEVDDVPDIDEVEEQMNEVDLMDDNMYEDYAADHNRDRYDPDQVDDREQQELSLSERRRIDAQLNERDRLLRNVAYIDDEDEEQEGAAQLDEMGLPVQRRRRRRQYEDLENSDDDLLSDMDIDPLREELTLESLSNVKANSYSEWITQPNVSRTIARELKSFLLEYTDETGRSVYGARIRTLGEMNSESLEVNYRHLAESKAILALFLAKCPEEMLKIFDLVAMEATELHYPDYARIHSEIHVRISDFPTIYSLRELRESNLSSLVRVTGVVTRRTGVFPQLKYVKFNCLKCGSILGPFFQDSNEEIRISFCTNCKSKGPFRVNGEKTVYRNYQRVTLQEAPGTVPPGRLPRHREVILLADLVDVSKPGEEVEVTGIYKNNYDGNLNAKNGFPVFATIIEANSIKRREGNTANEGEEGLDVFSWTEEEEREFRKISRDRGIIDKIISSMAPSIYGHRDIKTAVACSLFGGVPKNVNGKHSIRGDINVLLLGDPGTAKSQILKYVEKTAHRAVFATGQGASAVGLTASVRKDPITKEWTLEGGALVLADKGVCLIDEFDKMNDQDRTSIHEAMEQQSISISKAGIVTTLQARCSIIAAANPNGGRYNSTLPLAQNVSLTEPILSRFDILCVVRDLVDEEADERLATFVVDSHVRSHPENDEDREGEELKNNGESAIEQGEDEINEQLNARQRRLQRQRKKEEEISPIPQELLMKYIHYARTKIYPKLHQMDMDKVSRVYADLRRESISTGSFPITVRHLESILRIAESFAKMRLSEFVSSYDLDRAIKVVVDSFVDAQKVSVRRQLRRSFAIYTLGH

[2] = biological target: T2, Mcm6 (subunit of the MCM double hexamer) (budding yeast (endogenous in W303), UniProt P53091 1-1017)
T2 construct: Mcm6, budding yeast, endogenous protein from its genomic locus; Stood in the assay as a subunit of the DH; source: endogenous, G1 chromatin of budding yeast (W303), purified as part of the DH

[3] = biological target: T3, Mcm4 (subunit of the MCM double hexamer) (budding yeast (endogenous in W303), UniProt P30665 1-933)
T3 construct: Mcm4, budding yeast, endogenous protein from its genomic locus; Stood in the assay as a subunit of the DH; source: endogenous, G1 chromatin of budding yeast (W303), purified as part of the DH
T3 sequence (looked up): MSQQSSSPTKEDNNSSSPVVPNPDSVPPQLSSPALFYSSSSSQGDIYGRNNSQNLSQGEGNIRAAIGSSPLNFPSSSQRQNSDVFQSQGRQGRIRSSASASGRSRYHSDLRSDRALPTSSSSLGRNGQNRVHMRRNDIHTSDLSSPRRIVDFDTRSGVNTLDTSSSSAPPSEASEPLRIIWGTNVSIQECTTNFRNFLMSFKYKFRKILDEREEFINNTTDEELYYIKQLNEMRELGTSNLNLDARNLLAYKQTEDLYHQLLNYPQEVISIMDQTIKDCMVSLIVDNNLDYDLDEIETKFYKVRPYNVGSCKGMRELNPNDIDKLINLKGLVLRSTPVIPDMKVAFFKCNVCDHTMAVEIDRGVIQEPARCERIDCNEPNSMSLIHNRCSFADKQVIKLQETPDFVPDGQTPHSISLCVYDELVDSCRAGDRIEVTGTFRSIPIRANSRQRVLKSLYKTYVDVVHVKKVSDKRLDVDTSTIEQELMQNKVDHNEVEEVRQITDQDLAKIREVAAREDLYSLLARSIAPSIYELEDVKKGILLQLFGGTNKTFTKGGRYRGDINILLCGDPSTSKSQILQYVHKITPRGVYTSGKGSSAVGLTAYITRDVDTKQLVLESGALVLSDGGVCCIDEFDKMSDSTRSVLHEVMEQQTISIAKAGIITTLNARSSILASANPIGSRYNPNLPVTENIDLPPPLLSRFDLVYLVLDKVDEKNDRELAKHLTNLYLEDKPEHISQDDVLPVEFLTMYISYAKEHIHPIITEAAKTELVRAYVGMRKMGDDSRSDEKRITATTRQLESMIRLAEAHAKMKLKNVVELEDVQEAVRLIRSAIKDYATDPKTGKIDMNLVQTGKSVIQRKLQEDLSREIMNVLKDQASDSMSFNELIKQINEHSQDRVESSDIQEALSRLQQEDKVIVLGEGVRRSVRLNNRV

[4] = biological target: B1
[5] = biological target: T4, MCM double hexamer (Mcm2-7 double hexamer), endogenous, wild type (budding yeast (endogenous in W303), UniProt P29469 1-868; P24279 1-971; P30665 1-933; P29496 1-775; P53091 1-1017; P38132 …)
T4 construct: Mcm2, budding yeast, endogenous protein from its genomic locus; Mcm3, budding yeast, endogenous protein from its genomic locus; Mcm4, budding yeast, endogenous protein from its genomic locus; Mcm5, budding yeast, endogenous protein from its genomic locus; Mcm6, budding yeast, endogenous protein from its genomic locus; Mcm7, budding yeast, endogenous protein from its genomic locus; Either …
T4 sequence (P24279 whole entry, chain 2 of 4): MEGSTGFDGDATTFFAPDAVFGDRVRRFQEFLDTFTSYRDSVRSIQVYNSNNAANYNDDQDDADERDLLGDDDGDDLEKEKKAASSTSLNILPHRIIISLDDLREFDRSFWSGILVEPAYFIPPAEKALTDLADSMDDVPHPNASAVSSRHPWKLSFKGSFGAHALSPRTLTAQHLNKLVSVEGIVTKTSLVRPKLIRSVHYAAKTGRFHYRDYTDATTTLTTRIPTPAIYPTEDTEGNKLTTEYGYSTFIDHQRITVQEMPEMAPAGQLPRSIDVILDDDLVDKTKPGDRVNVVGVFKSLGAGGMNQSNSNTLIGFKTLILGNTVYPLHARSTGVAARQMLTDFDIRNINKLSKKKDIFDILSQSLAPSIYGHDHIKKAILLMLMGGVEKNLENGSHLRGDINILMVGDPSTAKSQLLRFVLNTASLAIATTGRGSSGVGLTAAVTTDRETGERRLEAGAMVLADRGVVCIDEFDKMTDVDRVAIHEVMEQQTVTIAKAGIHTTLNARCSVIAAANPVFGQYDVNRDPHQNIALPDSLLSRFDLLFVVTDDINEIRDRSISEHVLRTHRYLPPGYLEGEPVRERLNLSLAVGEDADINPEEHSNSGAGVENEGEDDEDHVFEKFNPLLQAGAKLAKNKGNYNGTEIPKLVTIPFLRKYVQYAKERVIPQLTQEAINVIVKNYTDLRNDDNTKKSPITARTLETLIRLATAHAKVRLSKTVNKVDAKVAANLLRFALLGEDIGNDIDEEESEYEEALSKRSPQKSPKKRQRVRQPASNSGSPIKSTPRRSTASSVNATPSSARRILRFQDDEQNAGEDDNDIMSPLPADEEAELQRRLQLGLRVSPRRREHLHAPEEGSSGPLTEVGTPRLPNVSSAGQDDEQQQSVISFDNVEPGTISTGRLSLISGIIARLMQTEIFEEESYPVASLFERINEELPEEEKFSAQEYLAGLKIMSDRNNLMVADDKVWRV
T4 sequence (P29496 whole entry, chain 4 of 4): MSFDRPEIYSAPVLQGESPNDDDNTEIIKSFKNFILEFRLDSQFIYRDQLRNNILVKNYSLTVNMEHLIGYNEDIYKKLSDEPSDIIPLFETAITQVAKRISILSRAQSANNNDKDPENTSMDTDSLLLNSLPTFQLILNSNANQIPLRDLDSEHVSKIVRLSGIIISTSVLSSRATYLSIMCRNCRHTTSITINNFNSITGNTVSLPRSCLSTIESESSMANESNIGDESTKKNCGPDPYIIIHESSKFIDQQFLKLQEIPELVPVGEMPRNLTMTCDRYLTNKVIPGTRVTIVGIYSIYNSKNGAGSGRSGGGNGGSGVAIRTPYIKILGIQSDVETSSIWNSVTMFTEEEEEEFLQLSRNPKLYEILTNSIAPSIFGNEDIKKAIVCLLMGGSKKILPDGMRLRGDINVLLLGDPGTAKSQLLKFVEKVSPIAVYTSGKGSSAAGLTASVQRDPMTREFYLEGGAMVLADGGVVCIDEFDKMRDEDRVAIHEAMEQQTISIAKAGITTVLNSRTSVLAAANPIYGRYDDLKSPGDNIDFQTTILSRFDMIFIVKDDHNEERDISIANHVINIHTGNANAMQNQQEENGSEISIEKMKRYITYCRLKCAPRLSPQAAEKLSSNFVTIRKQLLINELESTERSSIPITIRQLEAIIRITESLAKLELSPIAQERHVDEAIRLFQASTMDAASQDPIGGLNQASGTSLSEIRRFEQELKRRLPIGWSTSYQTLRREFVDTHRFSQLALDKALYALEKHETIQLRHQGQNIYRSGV
T4 sequence (P53091 whole entry, chain 5 of 4): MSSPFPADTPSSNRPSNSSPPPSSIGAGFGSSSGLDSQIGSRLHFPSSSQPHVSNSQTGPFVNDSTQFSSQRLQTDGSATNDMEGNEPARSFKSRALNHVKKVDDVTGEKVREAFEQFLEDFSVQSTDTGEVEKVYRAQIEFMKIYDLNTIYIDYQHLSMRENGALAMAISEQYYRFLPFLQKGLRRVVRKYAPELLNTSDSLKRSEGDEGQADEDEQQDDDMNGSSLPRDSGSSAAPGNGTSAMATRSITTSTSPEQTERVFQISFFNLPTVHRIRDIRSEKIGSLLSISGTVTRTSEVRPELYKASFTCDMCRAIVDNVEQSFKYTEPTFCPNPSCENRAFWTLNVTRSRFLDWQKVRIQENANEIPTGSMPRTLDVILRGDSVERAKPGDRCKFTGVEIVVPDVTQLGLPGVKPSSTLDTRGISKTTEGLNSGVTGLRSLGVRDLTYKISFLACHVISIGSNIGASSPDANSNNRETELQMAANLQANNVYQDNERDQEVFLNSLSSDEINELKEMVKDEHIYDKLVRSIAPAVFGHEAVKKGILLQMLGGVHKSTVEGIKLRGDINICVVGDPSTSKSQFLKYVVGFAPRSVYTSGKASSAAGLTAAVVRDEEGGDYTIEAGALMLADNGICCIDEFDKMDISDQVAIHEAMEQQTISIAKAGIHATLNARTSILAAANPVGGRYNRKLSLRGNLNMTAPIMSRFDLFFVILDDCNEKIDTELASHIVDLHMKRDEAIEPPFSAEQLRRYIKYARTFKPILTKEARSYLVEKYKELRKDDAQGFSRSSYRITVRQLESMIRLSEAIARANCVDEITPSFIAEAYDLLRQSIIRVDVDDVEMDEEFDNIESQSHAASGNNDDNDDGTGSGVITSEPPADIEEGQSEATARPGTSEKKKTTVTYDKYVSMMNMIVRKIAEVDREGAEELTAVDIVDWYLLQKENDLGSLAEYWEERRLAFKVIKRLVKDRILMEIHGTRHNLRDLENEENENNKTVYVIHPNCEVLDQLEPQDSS
T4 sequence (P38132 whole entry, chain 6 of 4): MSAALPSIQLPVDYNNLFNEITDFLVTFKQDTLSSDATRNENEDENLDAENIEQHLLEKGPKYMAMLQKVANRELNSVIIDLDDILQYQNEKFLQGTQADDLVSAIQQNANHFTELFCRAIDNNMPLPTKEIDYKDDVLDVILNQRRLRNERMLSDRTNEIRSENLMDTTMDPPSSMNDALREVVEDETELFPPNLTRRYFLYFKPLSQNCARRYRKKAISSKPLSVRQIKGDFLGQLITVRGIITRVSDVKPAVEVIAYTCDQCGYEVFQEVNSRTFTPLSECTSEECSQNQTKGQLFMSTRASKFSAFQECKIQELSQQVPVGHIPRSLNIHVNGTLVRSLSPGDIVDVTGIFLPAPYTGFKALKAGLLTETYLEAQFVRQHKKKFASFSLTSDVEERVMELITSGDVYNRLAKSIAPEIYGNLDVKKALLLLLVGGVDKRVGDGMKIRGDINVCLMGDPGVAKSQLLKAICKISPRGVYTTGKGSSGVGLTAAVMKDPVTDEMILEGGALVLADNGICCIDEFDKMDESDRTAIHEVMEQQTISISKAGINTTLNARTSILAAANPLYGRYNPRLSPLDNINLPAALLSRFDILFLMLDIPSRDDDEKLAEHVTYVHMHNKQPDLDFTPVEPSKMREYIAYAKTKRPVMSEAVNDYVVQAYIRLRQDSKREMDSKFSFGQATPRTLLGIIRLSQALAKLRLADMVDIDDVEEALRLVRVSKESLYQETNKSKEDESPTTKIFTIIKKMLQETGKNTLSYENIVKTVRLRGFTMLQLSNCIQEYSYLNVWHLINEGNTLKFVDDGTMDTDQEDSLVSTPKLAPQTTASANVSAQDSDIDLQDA

T2 sequence (P53091 whole entry): as the sequence (P53091 whole entry, chain 5 of 4) above

Question: Does B1 bind [1]?
Answer: binds

Question: Does B1 bind [2]?
Answer: binds

Question: Does B1 bind [3]?
Answer: binds

Question: Does B2 bind [4]?
Answer: binds

Question: With B3 as the binder, how does the “stoichiometry N” value [5] read?
Answer: 2 DDK per DH and 1 DDK per DH
